The numbers were not newly measured in PMC4771075, which cites them from elsewhere.

One may read the Ki as a dissociation constant, usually derived from enzyme kinetics or from competition with a known ligand.

The series concerns the target kappa opioid receptor (Rattus norvegicus) (UniProt P34975). Kind of series: radioligand.

Chain of kappa opioid receptor (Rattus norvegicus) (P34975 whole entry): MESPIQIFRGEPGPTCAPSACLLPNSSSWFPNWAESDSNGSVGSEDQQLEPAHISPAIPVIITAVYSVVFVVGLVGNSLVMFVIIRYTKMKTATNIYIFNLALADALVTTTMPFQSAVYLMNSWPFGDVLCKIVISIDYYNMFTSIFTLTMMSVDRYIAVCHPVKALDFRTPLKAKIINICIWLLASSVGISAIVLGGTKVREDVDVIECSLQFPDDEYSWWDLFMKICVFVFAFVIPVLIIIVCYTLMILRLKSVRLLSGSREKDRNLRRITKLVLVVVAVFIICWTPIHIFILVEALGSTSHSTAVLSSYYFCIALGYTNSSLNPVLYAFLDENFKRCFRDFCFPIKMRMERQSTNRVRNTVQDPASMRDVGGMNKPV

As for “Dyn A(1-11)NH2 1-11 (from UniProt P01213)”, the Ki is 0.57 nM.
